The target in this data set is FadR (Escherichia coli (EHEC) 86-24, UniProt B5YXL1 1-239). As to the kind of experiment: EMSA; apo FadR, no ligand. The conditions noted are these: protein: recombinant, tags: N-terminal His (pET28, NdeI/BamHI), chain copies: 2, blunt. (In general: A gel shift assay detects complexes by their altered migration in electrophoresis.)
Sequence of FadR (B5YXL1 whole entry): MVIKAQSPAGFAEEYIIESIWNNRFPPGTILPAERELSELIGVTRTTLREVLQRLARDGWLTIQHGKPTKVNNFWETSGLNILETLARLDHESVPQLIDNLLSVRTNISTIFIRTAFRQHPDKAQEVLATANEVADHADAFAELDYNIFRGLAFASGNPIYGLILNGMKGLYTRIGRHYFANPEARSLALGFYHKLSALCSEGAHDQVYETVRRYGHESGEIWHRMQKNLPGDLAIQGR

B1: fadL promoter FadR site (FadR_fadL site) (dsDNA)
DNA 1: ATCTGGTACGACCAGAT
DNA 2: ATCTGGTCGTACCAGAT
As for B1, the binding result (label: 32P (EMSA, T4 PNK), none stated in thermal shift) is recorded as “binds”.

B2: ler (LEE1) promoter distal FadR site (FadR_ler site) (dsDNA)
DNA 1: TAATCGTTTGTCCGACTTTAACAGA
DNA 2: TCTGTTAAAGTCGGACAAACGATTA
Consider B2, for which, where the note is “label: 32P (T4 PNK)”, the binding result was “binds”.

The values are drawn from paper PMC7845647.
